From US20220033501A1 (SHANGHAI PHARMAEXPLORER, published 2022)

B1: 7A4F10 fully human TIM-3 antibody (human IgG4, kappa) (antibody, V domains shown)
VH: EVQLLESGGGLVQPGGSLRLSCAASGFTFRTHLISWVRQAPGKGLEWVAAITGSGGSTYYADSVKGRFIISRDNSKNTLFLQMNSLRAEDTAVYYCAKDGGSGSYDDFWGQGTLVTVSS
VL: ETVLTQSPVTLSLSPGERATLSCRASQSVGSYLAWYQQKPGQAPRLLIYDASNRATGIPARFSGSGSGTDFTLTISSLEPEDFAVYYCQQRSNWPPTFGQGTKVEIK
B2: 7A4F10 (TIM-3 antibody purified from hybridoma, chimeric antibody of Example 2) (antibody, V domains shown)
VH: EVQLLESGGGLVQPGGSLRLSCAASGFTFRTHLISWVRQAPGKGLEWVAAITGSGGSTYYADSVKGRFIISRDNSKNTLFLQMNSLRAEDTAVYYCAKDGGSGSYDDFWGQGTLVTVSS
VL: ETVLTQSPVTLSLSPGERATLSCRASQSVGSYLAWYQQKPGQAPRLLIYDASNRATGIPARFSGSGSGTDFTLTISSLEPEDFAVYYCQQRSNWPPTFGQGTKVEIK
notes: From hybridoma of Harbour H2L2 transgenic mice: human variable regions, rat constant regions
B3: 34B6D8 (TIM-3 antibody purified from hybridoma, chimeric antibody of Example 2) (antibody, V domains shown)
VH: EVQLVESGGGLVQPGGSLRLSCAASGFTFSTYWMTWVRQAPGKRLEWVANIKQGGGDKYYVDSVKGRFTISTDNAKNSLYLQMNSLRAEDTAVYYCARGSNWFDPWGQGTLVTVSS
VL: EIVMTQSPATLSMSPGERATLSCRASQSVYDNLAWYQQKPGQAPRLLIYGASTRATGIPARFSGSGSGTEFTLTISSLQSEDFALYYCQQYTHWPITFGQGTRLEIK
notes: as for B2
B4: 57F4E5 fully human TIM-3 antibody (human IgG4, kappa) (antibody, V domains shown)
VH: EVQLVESGGGLVQPGGSLRLSCAASGFTFSSYWMSWVRQAPGKGLEWVANIKQDGSEKYYVDSVKGRFTISRDSAKNSLYLQMNSLRAEDTAMYFCARDSNFFDYWGQGTLVTVSS
VL: ETVMTQSPATLSVSPGERATLSCRASQSVSSNLAWYQRKPGQAPRLLIYFSSTRATGIPARFSGSGSGTEFTLTISSLQSEDFAVYYCQQYNNWPLTFGGGTKVEIK
B5: 57F4E5 (TIM-3 antibody purified from hybridoma, chimeric antibody of Example 2) (antibody, V domains shown)
VH: EVQLVESGGGLVQPGGSLRLSCAASGFTFSSYWMSWVRQAPGKGLEWVANIKQDGSEKYYVDSVKGRFTISRDSAKNSLYLQMNSLRAEDTAMYFCARDSNFFDYWGQGTLVTVSS
VL: ETVMTQSPATLSVSPGERATLSCRASQSVSSNLAWYQRKPGQAPRLLIYFSSTRATGIPARFSGSGSGTEFTLTISSLQSEDFAVYYCQQYNNWPLTFGGGTKVEIK
notes: as for B2
B6: 134H3G6 (TIM-3 antibody purified from hybridoma, chimeric antibody of Example 2) (antibody, V domains shown)
VH: EVQLVESGGGLVQPGGSLRLSCAASGFTFSNSWMTWVRQAPGKGLEWVANIKQAGTEKYYVDSVKGRFTISRDNAKNSLYLQMNSLRAEDTAVYYCNSGSNYFDYWGQGTLVTVSS
VL: EIVMTQSPATLSVSPGERATLSCRARQNFYSNLAWYQQKPGQAPRLLIYGASTRATGIPARFSGSGSGTEFTLTISSLQSEDFAVYYCQQYNNWPLTFGGGTKVEIK
notes: as for B2
B7: 134H3G6 fully human TIM-3 antibody (human IgG4, kappa) (antibody, V domains shown)
VH: EVQLVESGGGLVQPGGSLRLSCAASGFTFSNSWMTWVRQAPGKGLEWVANIKQAGTEKYYVDSVKGRFTISRDNAKNSLYLQMNSLRAEDTAVYYCNSGSNYFDYWGQGTLVTVSS
VL: EIVMTQSPATLSVSPGERATLSCRARQNFYSNLAWYQQKPGQAPRLLIYGASTRATGIPARFSGSGSGTEFTLTISSLQSEDFAVYYCQQYNNWPLTFGGGTKVEIK
B8: 18D2H2 (TIM-3 antibody purified from hybridoma, chimeric antibody of Example 2) (antibody, V domains shown)
VH: EVQLVESGGDLVQPGGSLRLSCAASGFTFSTYWMTWVRQAPGRGLEWVANIKQDGSAKYYVDSVKGRFTLSRDDAKNSLYLQMNSLRAEDTAVYYCARGSNWFDYWGQGTLVTVSS
VL: ETVMTQSPATLSVSPGERATLSCRANQNVYSNLAWYQQKPGQAPRLLIYDASTRATGFPARFSGSGSGTEFTLTISSLQSEDFAVYYCQQYNNWPLTFGGGTKVEIK
notes: as for B2
B9: 39E5H1 (TIM-3 antibody purified from hybridoma, chimeric antibody of Example 2) (antibody, V domains shown)
VH: EVQLVESGGGLVQPGGSLRLSCAASGFTFSSYWMSWVRQAPGKGLEWVANIKRGGSERYYVDSVKGRFTISGDNAKNSVYLQMNSLRAEDTAVYYCARGSNWFDPWGQGTLVTVSS
VL: ETVMTQSPAILSVSPGERATLSCRASQSVYSNLAWYQQKLGQAPRLLIYDASTRATGIPARFSGSGSGTEFTLTISSLQSEDFAVYYCQQYNNWPITFGQGTRLEIK
notes: as for B2
B10: 215A8F2 fully human TIM-3 antibody (human IgG4, kappa) (antibody, V domains shown)
VH: QVQLQQWGAGLLKPSETLSLTCTVYGGSFSGYYWNWIRQPPGKGLEWLGEINHSGSTNYNPSLKRRVTISVDTSKNQFSLKLSSVTAADTAVYYCARVYYYGPFDFWGQGTLVTVSS
VL: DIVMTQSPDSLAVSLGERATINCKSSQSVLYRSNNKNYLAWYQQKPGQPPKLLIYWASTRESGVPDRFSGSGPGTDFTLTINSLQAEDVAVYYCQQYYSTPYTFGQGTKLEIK
B11: 215A8F2 (TIM-3 antibody purified from hybridoma, chimeric antibody of Example 2) (antibody, V domains shown)
VH: QVQLQQWGAGLLKPSETLSLTCTVYGGSFSGYYWNWIRQPPGKGLEWLGEINHSGSTNYNPSLKRRVTISVDTSKNQFSLKLSSVTAADTAVYYCARVYYYGPFDFWGQGTLVTVSS
VL: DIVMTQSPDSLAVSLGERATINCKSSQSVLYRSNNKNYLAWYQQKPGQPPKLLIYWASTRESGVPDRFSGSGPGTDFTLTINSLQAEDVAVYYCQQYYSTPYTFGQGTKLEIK
notes: as for B2

Experiments:
[1] = target: T1, monkey TIM-3 on CHOK1 stable cell line (CHOK1-cTIM-3) (monkey); assay: FACS, CHOK1-cTIM-3 cells, 0 nM antibody
T1 chain: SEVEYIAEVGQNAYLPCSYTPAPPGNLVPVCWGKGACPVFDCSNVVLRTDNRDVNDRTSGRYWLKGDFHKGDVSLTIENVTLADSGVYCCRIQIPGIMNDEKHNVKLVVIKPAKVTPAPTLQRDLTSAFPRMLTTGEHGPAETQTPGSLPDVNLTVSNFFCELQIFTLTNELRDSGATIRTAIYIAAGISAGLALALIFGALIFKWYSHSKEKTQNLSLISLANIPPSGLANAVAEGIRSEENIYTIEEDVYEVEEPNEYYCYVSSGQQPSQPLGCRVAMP

[2] = target: T1, monkey TIM-3 on CHOK1 stable cell line …; assay: FACS, CHOK1-cTIM-3 cells, 40 nM antibody
[3] = target: T2, human TIM-3 on CHOK1 stable cell line (CHOK1-hTIM-3) (human, UniProt Q8TDQ0 22-301); assay: FACS, CHOK1-hTIM-3 cells, 1.6 nM antibody
T2 sequence: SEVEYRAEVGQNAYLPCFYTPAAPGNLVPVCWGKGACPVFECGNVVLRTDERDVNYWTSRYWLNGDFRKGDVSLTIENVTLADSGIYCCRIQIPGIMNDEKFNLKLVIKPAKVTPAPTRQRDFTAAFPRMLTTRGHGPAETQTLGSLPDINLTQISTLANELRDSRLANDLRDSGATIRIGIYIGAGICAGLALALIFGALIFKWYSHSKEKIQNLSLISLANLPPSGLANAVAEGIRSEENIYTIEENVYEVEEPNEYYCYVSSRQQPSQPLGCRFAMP

[4] = target: T2, human TIM-3 on CHOK1 stable cell line …; assay: FACS, CHOK1-hTIM-3 cells, 0.013 nM antibody
[5] = target: T3, human TIM-3 extracellular domain protein with hFc tag (hTIM-3-hFc) (human, UniProt Q8TDQ0 22-200); assay: ELISA, coated human TIM-3 ECD protein, 6.6667 nM antibody
T3 construct: not shown: human IgG Fc fragment (hFc) of the pCpC vector
T3 sequence: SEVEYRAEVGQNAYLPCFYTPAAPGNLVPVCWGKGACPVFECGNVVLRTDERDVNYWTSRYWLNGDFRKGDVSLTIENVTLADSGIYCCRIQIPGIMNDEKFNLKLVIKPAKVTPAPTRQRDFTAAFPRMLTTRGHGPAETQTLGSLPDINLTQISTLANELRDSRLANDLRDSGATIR

[6] = target: T4, human TIM-3 protein with hFc tag (hTIM-3-hFc protein) (human, UniProt Q8TDQ0 22-200); assay: ELISA, coated hTIM-3-hFc; antibody 66.667 nM
T4 construct: also called immunogen 1; human TIM-3 extracellular domain protein; not shown: human IgG Fc fragment (hFc) of the pCpC vector
T4 sequence: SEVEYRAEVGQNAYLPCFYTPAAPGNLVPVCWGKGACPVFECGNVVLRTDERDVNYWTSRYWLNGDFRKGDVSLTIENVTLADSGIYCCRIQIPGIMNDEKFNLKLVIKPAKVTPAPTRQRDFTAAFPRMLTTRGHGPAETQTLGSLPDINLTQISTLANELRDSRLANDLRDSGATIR
Text: (§1) The amino acid sequence 22-200 of the extracellular domain of the human TIM-3 protein described in the step of Example 1 (as shown in SEQ ID NO. 71 in the sequence listing) was cloned into a pCpC vector having a human IgG Fc fragment (hFc), and transfected into HEK293 cells. The cell culture medium was collected, and purified to obtain the human TIM-3 protein with hFc tag (herein referred to as hTIM-3-hFc protein). The amino acid sequence 22-201 of the extracellular domain of the monkey TIM-3 protein (as shown in SEQ ID NO. 72 in the sequence listing) was cloned into a pCpC vector having a human IgG Fc fragment (hFc), and transfected into HEK293 cells. The cell culture medium was collected, and purified to obtain the monkey TIM-3 protein with hFc tag (herein referred to as cTIM-3-hFc protein). […] The cell culture medium was collected, and purified to obtain the murine TIM-3 protein with hFc tag (herein referred to as mTIM-3-hFc protein). Purified human, monkey, and mouse TIM-3 extracellular domain proteins (hTIM-3-hFc, cTIM-3-hFc, and mTIM-3-hFc) were diluted with PBS to a final concentration of 1.0 μg/ml and then added to a 96-well ELISA plate with 100 μl per well. The plate was sealed with plastic film and incubated overnight at 4° C. The plate was washed 4 times with the plate washing solution (PBS+0.01% Tween20) on the next day, and added with the blocking solution (PBS+0.01% Tween20+1% BSA) and sealed at room temperature for 1-2 hours. The blocking solution was poured out. 50-100 μl of the antibody sample to be tested was added to each well. The plate was incubated at 37° C. for 1-2 hours, and washed 2-3 times with plate washing solution (PBS+0. 01% Tween20). HRP (horseradish peroxidase) labeled secondary antibody was added. The plate was incubated at 37° C. for 1-2 hours, and washed 2-3 times with plate washing solution (PBS+0. 01% Tween20). […] of TMB substrate was added to each well. After incubated at room temperature for 15-30 minutes, the plate was added with […] stop solution (1.0N HCl) to each well. An ELISA plate reader (TiterMax 384plus, Molecular Device) was used to read the A450 nm value.

[7] = target: T5, monkey TIM-3 protein with hFc tag (cTIM-3-hFc protein) (monkey; human); assay: ELISA, coated cTIM-3-hFc; antibody 0.0007 nM
T5 construct: Made in HEK293 cells; also called monkey TIM-3 extracellular domain protein; not shown: human IgG Fc fragment (hFc) of the pCpC vector
T5 chain: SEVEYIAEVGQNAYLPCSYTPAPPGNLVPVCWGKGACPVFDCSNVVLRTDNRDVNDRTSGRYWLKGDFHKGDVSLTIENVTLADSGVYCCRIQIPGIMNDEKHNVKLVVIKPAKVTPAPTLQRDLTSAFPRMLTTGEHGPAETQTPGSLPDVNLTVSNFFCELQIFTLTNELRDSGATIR
Text: as §1

[8] = target: T5, monkey TIM-3 protein with hFc tag …; assay: ELISA, coated cTIM-3-hFc; antibody 6.6667 nM
Text: as §1

| Mean fluorescence intensity [1] | Mean fluorescence intensity [2] | Mean fluorescence intensity [3] | Mean fluorescence intensity [4] | OD450 [5] | OD450 [6] | OD450 [7] | OD450 [8] | Binder |
| --- | --- | --- | --- | --- | --- | --- | --- | --- |
| 2.8 | 336 | 282 | 9.7 | 3.01 |  |  |  | B1 |
|  |  |  |  |  | 3.08 | 0.55 | 3.12 | B2 |
|  |  |  |  |  | 3.42 | 0.61 | 3.55 | B3 |
| 2.9 | 269 | 156 | 9.6 | 2.91 |  |  |  | B4 |
|  |  |  |  |  | 3.26 | 0.64 | 3.48 | B5 |
|  |  |  |  |  | 3.15 | 0.55 | 3.02 | B6 |
| 2.9 | 376 | 207 | 13.5 | 2.81 |  |  |  | B7 |
|  |  |  |  |  | 2.93 | 0.54 | 3.34 | B8 |
|  |  |  |  |  | 3.39 | 0.61 | 3.5 | B9 |
| 2.8 | 366 | 235 | 8.2 | 2.86 |  |  |  | B10 |
|  |  |  |  |  | 3.17 | 0.55 | 3.45 | B11 |
